One data set deals with T1, BfiI R212A (UniProt Q9F4C9 1-358, R212A).
T1 sequence: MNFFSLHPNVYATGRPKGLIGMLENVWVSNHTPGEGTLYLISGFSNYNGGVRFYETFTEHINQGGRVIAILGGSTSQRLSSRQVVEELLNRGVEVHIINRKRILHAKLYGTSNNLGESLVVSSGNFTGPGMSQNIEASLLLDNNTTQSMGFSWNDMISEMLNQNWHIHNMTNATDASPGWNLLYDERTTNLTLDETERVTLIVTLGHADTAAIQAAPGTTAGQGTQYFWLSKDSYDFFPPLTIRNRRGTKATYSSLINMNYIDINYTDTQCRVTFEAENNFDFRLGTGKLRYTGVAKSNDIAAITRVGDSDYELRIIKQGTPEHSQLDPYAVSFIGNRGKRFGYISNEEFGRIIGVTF
The data set can be described thus: EMSA. (A gel shift assay detects complexes by their altered migration in electrophoresis.)

Another data set deals with T2, BfiI W229A (UniProt Q9F4C9 1-358, W229A).
T2 sequence: T1 sequence with A212R, W229A
As to the kind of experiment: EMSA.

The next data set addresses T3, BfiI R272A (UniProt Q9F4C9 1-358, R272A).
T3 sequence: T1 sequence with A212R, R272A
The data set can be described thus: EMSA.

For the next data set, the target named is T4, BfiI R291A (UniProt Q9F4C9 1-358, R291A).
T4 sequence: T1 sequence with A212R, R291A
As to the kind of experiment: EMSA.

In the next data set the target is T5, BfiI T225A (UniProt Q9F4C9 1-358, T225A).
T5 sequence: T1 sequence with A212R, T225A
The data set can be described thus: EMSA.

The next data set concerns the target T6, BfiI N245A (UniProt Q9F4C9 1-358, N245A).
T6 sequence: T1 sequence with A212R, N245A
The data set can be described thus: EMSA.

Another data set concerns the target T7, BfiI E276A (UniProt Q9F4C9 1-358, E276A).
T7 sequence: T1 sequence with A212R, E276A
The data set can be described thus: EMSA.

The target in a further data set is T8, BfiI Y227A (UniProt Q9F4C9 1-358, Y227A).
T8 sequence: T1 sequence with A212R, Y227A
The data set can be described thus: EMSA.

A further data set addresses T9, BfiI Q223A (UniProt Q9F4C9 1-358, Q223A).
T9 sequence: T1 sequence with A212R, Q223A
The data set can be described thus: EMSA.

In the next data set the target is T10, BfiI Q226A (UniProt Q9F4C9 1-358, Q226A).
T10 sequence: T1 sequence with A212R, Q226A
As to the kind of experiment: EMSA.

The target of the next data set is T11, BfiI K250A (UniProt Q9F4C9 1-358, K250A).
T11 sequence: T1 sequence with A212R, K250A
As to the kind of experiment: EMSA.

The target in data set [1] is T12, BfiI-C (C-terminal DNA-binding domain) (UniProt Q9F4C9 193-358).
T12 sequence: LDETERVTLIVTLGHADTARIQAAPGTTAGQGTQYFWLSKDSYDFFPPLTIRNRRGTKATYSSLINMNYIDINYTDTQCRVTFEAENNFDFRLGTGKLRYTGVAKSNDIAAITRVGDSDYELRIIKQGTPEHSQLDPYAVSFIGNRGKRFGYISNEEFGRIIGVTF
As to the kind of experiment: X-ray crystallography.

Where a chain is given by its changes, count along the chain named.

B1: 16SP (dsDNA)
DNA 1: AGCGTAGCACTGGGCT
DNA 2: AGCCCAGTGCTACGCT
In the case of B1, the binding signal with BfiI R212A was 2 % of WT KA; with BfiI W229A it was 1 % of WT KA; with BfiI R272A, 1 % of WT KA; with BfiI R291A, 2 % of WT KA; with BfiI T225A, 10 % of WT KA; with BfiI N245A, 100 % of WT KA. The binding signal was 10 % of WT KA with BfiI E276A; 5 % of WT KA with BfiI Y227A; 100 % of WT KA with BfiI Q223A; 50 % of WT KA with BfiI Q226A; 2 % of WT KA with BfiI K250A.

B2: 12/12 (dsDNA)
DNA 1: AGCACTGGGTCG
DNA 2: CGACCCAGTGCT
Take B2: the binding result in data set [1] is on record as “binds”.
